Measured values: patent US20020081601A1, “Methods and compositions for diagnosis and treatment of cancer based on the transcription factor ets2” (MUSC Foundation For Research Development., priority 1998, published 2002)

Test system: DU145
Test: Soft agar growth assay (anchorage independent growth)
Type: cell-based, human
Conditions: DN-ETS2 transfectants vs DU145 parental; after three weeks
Protocol: Soft agar growth assays were performed in six-well plates (35-mm wells). Cells (20,000) were plated in 0.4% agar (Sigma) in RPMI 1640 supplemented with 10% FBS. An underlayer of 0.8% agar was used to prevent attachment of cells. Triplicate assays initiated with 20,000 cells were fed weekly by agar overlay and scored after 3 weeks. The soft agar assays were performed twice, independently.

B1: DN-ETS2: dominant negative ETS2 mutant: DNA binding domain (C-terminal amino acids 334-469) of human ETS2, expressed from pDN-ETS2 (protein, UniProt P15036 334-469, looked up, fragment)
chain: YIQERSDPVEQGKPVIPAAVLAGFTGSGPIQLWQFLLELLSDKSCQSFISWTGDGWEFKLADPDEVARRWGKRKNKPKMNYEKLSRGLRYYYDKNIIHKTSGKRYVYRFVCDLQNLLGFTPEELHAILGVQPDTED
  anchorage-independent growth in soft agar: do not grow well in soft agar
